Source: patent publication US20260116963A1 (GENERATE BIOMEDICINES, published 2026)

B1: NB-13 (antibody, human IgG4 S228P, kappa)
heavy: QVTLRESGPALVKPTQTLTLTCTVSGFSLSAYSVNWIRQPPGKALEWLAMIWGDGKIVYNSALKSRLTISKDTSKNQVVLTMTNMDPVDTATYYCAGDGYYPYAMDNWGQGSLVTVSSASTKGPSVFPLAPCSRSTSESTAALGCLVKDYFPEPVTVSWNSGALTSGVHTFPAVLQSSGLYSLSSVVTVPSSSLGTKTYTCNVDHKPSNTKVDKRVESKYGPPCPPCPAPEFLGGPSVFLFPPKPKDTLYITREPEVTCVVVDVSQEDPEVQFNWYVDGVEVHNAKTKPREEQFNSTYRVVSVLTVLHQDWLNGKEYKCKVSNKGLPSSIEKTISKAKGQPREPQVYTLPPSQEEMTKNQVSLTCLVKGFYPSDIAVEWESNGQPENNYKTTPPVLDSDGSFFLYSRLTVDKSRWQEGNVFSCSVMHEALHNHYTQKSLSLSLGK
light: DIVMTQSPDSLSVSLGERATINCRASKSVDSYGNSFMHWYQQKPGQPPKLLIYLASNLESGVPDRFSGSGSGTDFTLTISSLQAEDVAVYYCQQNNEDPRTFGGGTKVEIKRTVAAPSVFIFPPSDEQLKSGTASVVCLLNNFYPREAKVQWKVDNALQSGNSQESVTEQDSKDSTYSLSSTLTLSKADYEKHKVYACEVTHQGLSSPVTKSFNRGEC
B2: NB-1 (antibody, human IgG4 S228P, kappa, V domains shown)
VH: QVTLRESGPALVKPTQTLTLTCTVSGASLSAYSVNWIRQPPGKALEWLAMIWGDGKIVYNSALKSRLTISKDTSKNQVVLTMTNMDPVDTATYYCAGLGYYPYAMDLWGQGSLVTVSS
VL: DIVMTQSPDSLSVSLGERATINCRASKSVDSYGNSFMHWYQQKPGQPPKLLIYLASNLESGVPDRFSGSGSGTDFTLTISSLQAEDVAVYYCQQNNEDPRTFGGGTKVEIKR
B3: NB-2 (antibody, human IgG4 S228P, kappa, V domains shown)
VH: QVTLRESGPALVKPTQTLTLTCTVSGFSLSAYSVNWIRQPPGKALEWLAMIWGDGKIVYNSALKSRLTISKDTSKNQVVLTMTNMDPVDTATYYCAGLGYYPYAMDNWGQGSLVTVSS
VL: DIVMTQSPDSLSVSLGERATINCRASKSVDSYGNSFMHWYQQKPGQPPKLLIYLASNLESGVPDRFSGSGSGTDFTLTISSLQAEDVAVYYCQQNNEDPRTFGGGTKVEIKR
B4: NB-3 (antibody, human IgG4 S228P, kappa, V domains shown)
VH: QVTLRESGPALVKPTQTLTLTCTVSGASLSSYSVNWIRQPPGKALEWLAMIWGDGKIVYNSALKSRLTISKDTSKNQVVLTMTNMDPVDTATYYCAGEGYYPYAMDVWGQGSLVTVSS
VL: DIVMTQSPDSLSVSLGERATINCRASKSVDSYGNSYMHWYQQKPGQPPKLLIYLASNLESGVPDRFSGSGSGTDFTLTISSLQAEDVAVYYCQQNNEDPRTFGGGTKVEIKR
B5: NB-4 (antibody, human IgG4 S228P, kappa, V domains shown)
VH: QVTLRESGPALVKPTQTLTLTCTVSGASLSAYSVNWIRQPPGKALEWLAMIWGDGKIVYNSALKSRLTISKDTSKNQVVLTMTNMDPVDTATYYCAGDGYYPYAMDNWGQGSLVTVSS
VL: DIVMTQSPDSLSVSLGERATINCRASKSVDSYGNSFMHWYQQKPGQPPKLLIYLASNLESGVPDRFSGSGSGTDFTLTISSLQAEDVAVYYCQQNNEDPLTFGGGTKVEIKR
B6: NB-5 (antibody, human IgG4 S228P, kappa, V domains shown)
VH: QVTLRESGPALVKPTQTLTLTCTVSGASLSAYSVNWIRQPPGKALEWLAMIWGSGKIVYNSALKSRLTISKDTSKNQVVLTMTNMDPVDTATYYCAGDGYYPYAMDNWGQGSLVTVSS
VL: DIVMTQSPDSLSVSLGERATINCRASKSVDSYGNSFMHWYQQKPGQPPKLLIYLASNLESGVPDRFSGSGSGTDFTLTISSLQAEDVAVYYCQQNNEDPRTFGGGTKVEIKR
B7: NB-6 (antibody, human IgG4 S228P, kappa, V domains shown)
VH: QVTLRESGPALVKPTQTLTLTCTVSGASLSAYSVNWIRQPPGKALEWLAMISGDGKIVYNSALKSRLTISKDTSKNQVVLTMTNMDPVDTATYYCAGDGYYPYAMDNWGQGSLVTVSS
VL: DIVMTQSPDSLSVSLGERATINCRASKSVDSYGNSFMHWYQQKPGQPPKLLIYLASNLESGVPDRFSGSGSGTDFTLTISSLQAEDVAVYYCQQNNEDPRTFGGGTKVEIKR
B8: NB-7 (antibody, human IgG4 S228P, kappa, V domains shown)
VH: QVTLRESGPALVKPTQTLTLTCTVSGFSLSAYSVNWIRQPPGKALEWLAMIWGDGKIVYNSALKSRLTISKDTSKNQVVLTMTNMDPVDTATYYCAGDGYYPYAMDNWGQGSLVTVSS
VL: DIVMTQSPDSLSVSLGERATINCRASKSVDSYGNSFMHWYQQKPGQPPKLLIYLASNLESGVPDRFSGSGSGTDFTLTISSLQAEDVAVYYCQQNNEDPLTFGGGTKVEIKR
B9: NB-8 (antibody, human IgG4 S228P, kappa, V domains shown)
VH: QVTLRESGPALVKPTQTLTLTCTVSGASLSAYSVNWIRQPPGKALEWLAMIWGDGKIVYNSALKSRLTISKDTSKNQVVLTMTNMDPVDTATYYCAGEGYYPYAMDYWGQGSLVTVSS
VL: DIVMTQSPDSLSVSLGERATINCRASKSVDSYGNSFMHWYQQKPGQPPKLLIYLASNLESGVPDRFSGSGSGTDFTLTISSLQAEDVAVYYCQQNNEDPRTFGGGTKVEIKR
B10: NB-9 (antibody, human IgG4 S228P, kappa, V domains shown)
VH: QVTLRESGPALVKPTQTLTLTCTVSGFSLSAYSVNWIRQPPGKALEWLAMIWGSGKIVYNSALKSRLTISKDTSKNQVVLTMTNMDPVDTATYYCAGDGYYPYAMDNWGQGSLVTVSS
VL: DIVMTQSPDSLSVSLGERATINCRASKSVDSYGNSFMHWYQQKPGQPPKLLIYLASNLESGVPDRFSGSGSGTDFTLTISSLQAEDVAVYYCQQNNEDPRTFGGGTKVEIKR
B11: NB-10 (antibody, human IgG4 S228P, kappa, V domains shown)
VH: QVTLRESGPALVKPTQTLTLTCTVSGASLSAYSVNWIRQPPGKALEWLAMIWGDGKIVYNSALKSRLTISKDTSKNQVVLTMTNMDPVDTATYYCAGDGYYPYAMDNWGQGSLVTVSS
VL: DIVMTQSPDSLSVSLGERATINCRASKSVDYYGNSFMHWYQQKPGQPPKLLIYLASNLESGVPDRFSGSGSGTDFTLTISSLQAEDVAVYYCQQNNEDPLTFGGGTKVEIKR
B12: NB-11 (antibody, human IgG4 S228P, kappa, V domains shown)
VH: QVTLRESGPALVKPTQTLTLTCTVSGASLSAYSVNWIRQPPGKALEWLAMIWGDGTIVYNSALKSRLTISKDTSKNQVVLTMTNMDPVDTATYYCAGDGYFPYAMDNWGQGSLVTVSS
VL: DIVMTQSPDSLSVSLGERATINCRASKSVDSYGHSFMHWYQQKPGQPPKLLIYLASNLESGVPDRFSGSGSGTDFTLTISSLQAEDVAVYYCQQNNEDPRTFGGGTKVEIKR
B13: NB-12 (antibody, human IgG4 S228P, kappa, V domains shown)
VH: QVTLRESGPALVKPTQTLTLTCTVSGASLSAYSVNWIRQPPGKALEWLAMIWGDGKIVYNSALKSRLTISKDTSKNQVVLTMTNMDPVDTATYYCAGDGYYPWAMDNWGQGSLVTVSS
VL: DIVMTQSPDSLSVSLGERATINCRASQSVDSYGNSFMHWYQQKPGQPPKLLIYLASNLESGVPDRFSGSGSGTDFTLTISSLQAEDVAVYYCQQNNEDPRTFGGGTKVEIKR

The binders below were run against T1, human IL-13 (human, UniProt P35225 25-146, limits assumed) (assay: SPR array (Carterra LSA), antibody captured on anti-human pAb HC30M chip, human IL-13 0.05-100 nM as analyte, 25 C, 1:1 fit).
T1 construct: The KinExA antigen was detected with an anti-HIS IgG, so it probably carried a HIS tag; also called Interleukin-13; hIL-13
T1 sequence (P35225 other isoform, or with tags, fused parts or gaps limits assumed): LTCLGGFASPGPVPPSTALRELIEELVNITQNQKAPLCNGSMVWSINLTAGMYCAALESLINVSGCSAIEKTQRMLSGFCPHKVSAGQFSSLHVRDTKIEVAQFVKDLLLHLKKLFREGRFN

Row | Binder | Kd [nM] | koff [s⁻¹] | kon [M⁻¹ s⁻¹]
1 | B1 | < 0.1 | – | –
2 | B2 | 5.21 | 0.000601 | 117000
3 | B3 | 6.67 | 0.000618 | 93000
4 | B4 | 1.89 | 0.00047 | 290000
5 | B5 | 13.6 | 0.000987 | 74000
6 | B6 | 4.24 | 0.00127 | 303000
7 | B7 | 3.34 | 0.000855 | 258000
8 | B8 | 8.35 | 0.000827 | 100000
9 | B9 | 2.56 | 0.000674 | 259000
10 | B10 | 2.41 | 0.000734 | 305000
11 | B11 | 13.6 | 0.000805 | 62000
12 | B12 | 0.97 | 0.000135 | 139000
13 | B13 | 6.09 | 0.000711 | 117000
